From publication doi:10.1101/2024.10.30.621104 (bioRxiv, 2024) come the findings set out here.

The series concerns the molecule itself. In words: single-molecule photobleaching step counting.

B1: HSV-1 origin binding protein UL9 labelled at its C-terminus with Atto647N through a ybbR-tag (enzyme, Herpes simplex virus type 1, UniProt P10193 1-851, looked up)
chain: MPFVGGAESGDPLGAGRPIGDDECEQYTSSVSLARMLYGGDLAEWVPRVHPKTTIERQQHGPVTFPNASAPTARCVTVVRAPMGSGKTTALIRWLREAIHSPDTSVLVVSCRRSFTQTLATRFAESGLVDFVTYFSSTNYIMNDRPFHRLIVQVESLHRVGPNLLNNYDVLVLDEVMSTLGQLYSPTMQQLGRVDALMLRLLRICPRIIAMDATANAQLVDFLCGLRGEKNVHVVVGEYAMPGFSARRCLFLPRLGTELLQAALRPPGPPSGPSPDASPEARGATFFGELEARLGGGDNICIFSSTVSFAEIVARFCRQFTDRVLLLHSLTPLGDVTTWGQYRVVIYTTVVTVGLSFDPLHFDGMFAYVKPMNYGPDMVSVYQSLGRVRTLRKGELLIYMDGSGARSEPVFTPMLLNHVVSSCGQWPAQFSQVTNLLCRRFKGRCDASACDTSLGRGSRIYNKFRYKHYFERCTLACLSDSLNILHMLLTLNCIRVRFWGHDDTLTPKDFCLFLRGVHFDALRAQRDLRELRCRDPEASLPAQAAETEEVGLFVEKYLRSDVAPAEIVALMRNLNSLMGRTRFIYLALLEACLRVPMATRSSAIFRRIYDHYATGVIPTINVTGELELVALPPTLNVTPVWELLCLCSTMAARLHWDSAAGGSGRTFGPDDVLDLLTPHYDRYMQLVFELGHCNVTDGLLLSEEAVKRVADALSGCPPRGSVSETDHAVALFKIIWGELFGVQMAKSTQTFPGAGRVKNLTKQTIVGLLDAHHIDHSACRTHRQLYALLMAHKREFAGARFKLRVPAWGRCLRTHSSSANPNADIILEAALSELPTEAWPMMQGAVNFSTL
modifications: Atto647N fluorophore on the C-terminus through a ybbR-tag
B1: the “stoichiometry N” value is 2.

Usually stoichiometry N stands for a count of units in the complex or per binding partner.
